Reference: patent publication US20260035728A1 (Chugai, published 2026)
Numbering of substitutions follows the chain as printed. In names and notes the source's numbering stands.

Experiments:
Test in all cases: co-expression of both H chains with the common L chain; cation exchange chromatography (IEX), ratio of peak areas of A-Homo, BiAb and B-Homo; IgG4-type
[1] = biological target: humanized B26 antibody H chain, IgG4-type w1 (D399K, E357K)
[2] = biological target: humanized B26 antibody H chain, IgG4-type w3C2 (E357K, E356K, Y349C)
[3] = biological target: humanized B26 antibody H chain, IgG4-type w2 (D399K, E356K)
[4] = biological target: humanized B26 antibody H chain, IgG4-type w3 (E357K, E356K)
[5] = biological target: humanized B26 antibody H chain, IgG4-type w3C (E357K, E356K, S354C)
[6] = biological target: humanized B26 antibody H chain, IgG4-type s1C (D399K, S354C)

B1: humanized A69 antibody H chain, IgG4-type w1 (R409D, K370E) (other)
heavy: EVQLVQSGAEVVKPGSSVKVSCTASGYTFSDYYMHWVRQAPGEGLEWMGYINPSSGYTKYNRKFRDRVTITADKSTSTAYMELSSLRSEDTAVYYCARGGLGYYLDYWGEGTTVTVSSASTKGPSVFPLAPCSRSTSESTAALGCLVKDYFPEPVTVSWNSGALTSGVHTFPAVLQSSGLYSLSSVVTVPSSSLGTKTYTCNVDHKPSNTKVDKRVESKYGPPCPPCPAPEFLGGPSVFLFPPKPKDTLMISRTPEVTCVVVDVSQEDPEVQFNWYVDGVEVHNAKTKPREEQFNSTYRVVSVLTVLHQDWLNGKEYKCKVSNKGLPSSIEKTISKAKGQPREPQVYTLPPSQEEMTKNQVSLTCLVEGFYPSDIAVEWESNGQPENNYKTTPPVLDSDGSFFLYSDLTVDKSRWQEGNVFSCSVMHEALHNHYTQKSLSLSLGK
How did the “BiAb formation efficiency (%)” value [1] turn out when B1 was run?
The value was ≥ 90%.

B2: humanized A69 antibody H chain, IgG4-type w3C2 (K370E, K439E, S354C) (other)
heavy: B1 heavy with S352C, D407R, K437E
Which “BiAb formation efficiency (%)” value [2] does the source give for B2 here?
The value was ≥ 90%.

B3: humanized A69 antibody H chain, IgG4-type w2 (R409D, K439E) (other)
heavy: B1 heavy with E368K, K437E
For B3, which “BiAb formation efficiency (%)” value [3] is on record?
The value was ≥ 90%.

B4: humanized A69 antibody H chain, IgG4-type w3 (K370E, K439E) (other)
heavy: B1 heavy with D407R, K437E
Which “BiAb formation efficiency (%)” value [4] does the source give for B4 here?
Its value is ≥ 90%.

B5: humanized A69 antibody H chain, IgG4-type w3C (K370E, K439E, Y349C) (other)
heavy: B1 heavy with Y347C, D407R, K437E
B5 was tested. Which “BiAb formation efficiency (%)” value [5] did it give?
The value was ≥ 90%.

B6: humanized A69 antibody H chain, IgG4-type s1C (R409D, Y349C) (other)
heavy: B1 heavy with Y347C, E368K
Which “BiAb formation efficiency (%)” value [6] does the source give for B6 here?
The value was ≥ 90%.
